In the DeepSol protein solubility set:

Assay: soluble on expression in E. coli; label from the status in PepcDB or PDB records

Sequence	soluble on expression in E. coli
PRLTRRLTGFLPQEIKSIDTMIPLLSRALWNKHQVKKFNKAEDFQDRFIDHVETTLARSLYNCDDMVAYEAASMSIRDNLVIDWNKTQQKFTTRDPKRVYYLSLEFLMGRALDNALINMKIEDPEDPAASKGKPREMIKGALDELGFKLEDVLDQEPDAGLGNGGLGRLAACFVDSMATEGIPAWGYGLRYEYGIFAQKIIDGYQVETPDYWLNSGNPWEIERNEVQIPVTFYGYVDRPEGGKTTLSASQWIGGERVLAVAYDFPVPGFKTSNVNNLRLWQARPTTEFDLNKFNNGDYKNSVAQQQRAESITAVLYPNDNFAQGKELRLKQQYFWCAASLHDILRRFKKSKRPWTEFPDQVAIQLNDTHPTLAIVELQRVLVDLEKLDWHEAWDIVTKTFAYTNHTVMQEALEKWPRRLFGHLLPRHLEIIYDINWFFLEDVAKKFPKDVDLLSRISIIEENSPERQIRMAFLAIVGSHKVNGVVELHSELIKTTIFKDFIKFYGPSKFVNVTNGITPRRWLKQANPSLAKLISETLNDPTEEYLLDMAKLTQLEKYVEDKEFLKKWNQVKLNNKIRLVDLIKKENDGVDIINREYLDDTLFDMQVKRIHEYKRQQLNVFGIIYRYLAMKNMLKNGASIEEVARKYPRKVSIFGGKSAPGYYMAKLIIKLINCVADIVNNDESIEHLLKVVFVADYNVSKAEIIIPASDLSEHISTAGTEASGTSNMKFVMNGGLIIGTVDGANVEITREIGEDNVFLFGNLSENVEELRYNHQYHPQDLPSSLDSVLSYIESGQFSPENPNEFKPLVDSIKYHGDYYLVSDDFESYLATHELVDQEFHNQRSEWLKKSVLSLANVGFFSSDRCIEEYSDTIWNVEPVT	soluble
MPNDIENGTVIPPRRGVVWKIEEKELQGFAIPFPGADLSVMVRSQYYDATVRKSRPVHLSSYFQLDTRFKTYRLILWGAITRAFALASFTRRILLKYPDQCSFRMFKKSGPSAQQIAEASFTYWFFGYGYKETIPLDQQHERKVDRKVVATCKGPDLAYMAASGCVLSAALALVKDKNNLPKEGGVYTPAAAFGDSKIYDYLATFGINFHLESEYDL	not soluble
MSLTQKPLTVVVGPPSAGKSTWVKAAAKASDLVIDLDILAPTVIGKPMWIADSRERSLVIRERNSLVAEYMRGKTAHPHCFLIDTAGSFKRRKFWLDRGADVVLLDTDKDICRARIRQCSARPESTRAGRLAAVDRWEEGHHHHHH	soluble
MDYILGRYVKIARYGSGGLVGGGGKEQYVENLVLWENIIKTAYCFITPSSYTAALETANIPEKDFSNCFRFLKENFFIIPGEYNNSTENNRYSRNFLHYQSYGANPVLVQDKLKNAKVVILGCGGIGNHVSVILATSGIGEIILIDNDQIENTNLTRQVLFSEDDVGKNKTEVIKRELLKRNSEISVSEIALNINDYTDLHKVPEADIWVVSADHPFNLINWVNKYCVRANQPYINAGYVNDIAVFGPLYVPGKTGCYECQKVVADLYGSEKENIDHKIKLINSRFKPATFAPVNNVAAALCAADVIKFIGKYSEPLSLNKRIGIWSDEIKIHSQNMGRSPVCSVCGNRMLEHHHHHH	soluble
MPTLIVLIGPTGVGKTELSLRLAENFHTSIVSADSRQLYAELKIGTAAPTPDQLKRVPHYLVGTLHLTDYYSAAQYEQEAMEILHQLFTEHEVVVLTGGSMMYVDAICKGIDDIPTVDAETRQVMLQKYEEEGLEQLCAELRLLDPDYYRIVDLKNPKRVIHALEICYMTGKTYTSFRTQQKKERPFRILKIGLTRDREELYDRINRRVDQMMEEGLLDEVRSVLSYRHLNSLNTVGYKELFKYLDGEWELPFAIEKIKQNSRIYSRKQMTWFKRDEEIRWFHPEQETEILEYLRLQNLTHLPSLDTFLEHHHHHH	soluble
MGSDKIHHHHHHMDGRGLKAYATPIRKFWVVLLQQRRMAMAENEKYLDWAREVLHTEAEGLREIAAELDENFVLAADALLHCKGRVVITGMGKSGHIGRKMAATMASTGTPAFFVHPAEAAHGDLGMIVDNDVVAAISNSGESDEITAIIPALKRKDITLVCITARPDSTMARHADIHITASVSQEACPLGLAPTTSTTAVMALGDALAVVLLRARAFTPDDFALIHPAGSLGKRLLLRVADIMHKGGGLPAVRLGTPLKGAIVSMSEKGLGMLAVTDGQGCLKGVFTDGDLRRLFQECDNFTGLSIDEVMHTHPKTISAERLATEALKVMQANHVNGLLVTDADGVLTGALNMHDLLAARIV	not soluble
MGSDKIHHHHHHMCRWLAYSGRPIFLDSLVTQPSHSLVAQSLHSQLNVSSAGVLLSTNGDGFGIGWYHKRPEPGVFKDDKPAWHDENLKNLCHQVKSHIFFAHIRATTTGDVQRTNCHPFQYKNWLFQHNGHVSHFDKIRRELQLEIAPELYPHLRGTTDSETFFLLALTYGLMEQPKQAMQKMVRRVITALEGVDKAGVLNLSCALSDGEKLFILRFAHNEAAMTQFYSADTDCFHEFNGQCNPIPNGSLVVVSEPLDKASDKWTSIPTNTFTSIIKNRVHSEVFL	not soluble
DSLGWSNVDVLDRICEAYGFSQKIQLANHFDIASSSLSNRYTRGAISYDFAAHCALETGANLQWLLTGEGEAFVNNRESSDAKRIEGFTLSEEILKSDKQLSVDAQFFTKPLTDGMAIRSEGKIYFVDKQASLSDGLWLVDIKGAISIRELTKLPGRKLHVAGGKVPFECGIDDIKTLGRVVGVYSEVN	soluble
MGHHHHHHSHMKANLSLLRRPGEKTYTQRCRLFVGNLPADITEDEFKRLFAKYGEPGEVFINKGKGFGFIKLESRALAEIAKAELDDTPMRGRQLRVRFATHAAALSVRNLSPYVSNELLEEAFSQFGPIERAVVIVDDRGRSTGKGIVEFASKPAARKAFERCSEGVFLLTTTPRPVIVEPLEQLDDEDGLPEKLAQKNPMYQKE	soluble
MGYHGGTMRVLGRRIYWRWYGEVLLEGGVTLRMTGDVAKWLRPGDRVRLRTEFKKPVLGFDEYALEAVFPLWPPFAKTLEHVRESPFGGKAYRYRLKVREATYEGDYEAIAELEQFHYASEKEVVALWVCTQCQKTLPANARPLCDCGGEARLKEIRGSTPASRFLVLELAERLPFEPRILGYLRLDPPIPRMHRRTPEGVERDIRERIFPRDWFHPTYEGGADWQRALDRVNTAAARIARVVVHPDYRSEGFGALLVRVALEWAKERGAPEARREKHLVYTIAQMARYHPFFEKVGFRYLFDTASGRPVLFYPLTEEAEAHLERFLREDPYAKAHGGRLYKPRFGRVPGLPGPIRLRGVHKAYRSHLDLEGLSREVQEALLAFGVKARVVERAVLRGASLEIPPGSLVVLAGASGAGKTTLLRLLLGEAPDAGEVAVPPGRRVAYIPGEREVDLGEDPILEAVYRRLKDVGAAIEVLNRVGLSDAVLYRARPHELSTGQRERFRLALLLAERPDLLLIDEFAAHLDVPTARRVALGLGKLCREAGVTLVAATHRPEVVAALDPDLLVYVGYGGLTTVPRRGPRT	soluble
MGSDKIHHHHHHMYRVFVFDLDGTLLNDNLEISEKDRRNIEKLSRKCYVVFASGRMLVSTLNVEKKYFKRTFPTIAYNGAIVYLPEEGVILNEKIPPEVAKDIIEYIKPLNVHWQAYIDDVLYSEKDNEEIKSYARHSNVDYRVEPNLSELVSKMGTTKLLLIDTPERLDELKEILSERFKDVVKVFKSFPTYLEIVPKNVDKGKALRFLRERMNWKKEEIVVFGDNENDLFMFEEAGLRVAMENAIEKVKEASDIVTLTNNDSGVSYVLERISTDCLDE	not soluble
MECETDEQKQGSDENMSECETSSVCSSSDTGLFTNDEGRQGDDEQSDWFYEGECVPGFTVPNLLPKWAPDHCSEVERMDSGLDKFSDSTFLLPSRPAQRGYHTRLNRLPGAAARCLRKGRRRLVGKETSINTLGTERISHIISDPRQKDFWLPSAGKRERNQFNPLSPLYSLDVLADASHRRCSPAHCSARQANVHWGPPCSRVIKRKRKPVATASLSSPSAVHMDAVEPTTPASQAPKSPSSEWLVRTSAAEKATDATTATFFKMPQEKSPGYSLEHHHHHH	soluble
MHHQSVLHSGYFHPLLRSWQTAASTVSASNLIYPIFVTDVPDDVQPIASLPGVARYGVNQLEEMLRPLVEAGLRCVLIFGVPSRVPKDEQGSAADSEDSPTIEAVRLLRKTFPSLLVACDVCLCPYTSHGHCGLLSENGAFLSEESRQRLAEVALAYAKAGCQVVAPSDMMDGRVEAIKAALLKHGLGNRVSVMSYSAKFASCFYGPFRDAAQSSPAFGDRRCYQLPPGARGLALRAVARDIQEGADMLMVKPGLPYLDMVREVKDKHPELPLAVYQVSGEFAMLWHGAQAGAFDLRTAVLETMTAFRRAGADIIITYFAPQLLKWLKEE	soluble
MGSDKIHHHHHHMPYDEILPIETLVRPKVSDFREHYLEKERPVKIARALDAWPAMQKWSLDYFENRFGDETIGVESFQPDERGPGNNSPQGYVKHLRFQELKLKELIRILRTKPDHMYYMASHPFRKSFPNLRADLAPHPYVQGHIEHIPGAHMDSYLWIGPAGTHTPIHTDPMPNFLTQIVGRKMVYLFPPDQASKNLYIGQFERETFSPVDLEKPDLERYPNYRHCTPYRAIIEPGETLHIPRNWGHCVISMDISISISTFFITYPQLFRLVPEFFTQYVKRAFEGWRWKGMENERAGLNPPPR	not soluble
MAHHHHHHMLHCSREEVGELLIDSCKRSVGTSVELDTLLSNKNTSKVAPDATAATIMQVRMMYGKDDSGDLSYAEMTRLVEGLSSSKDLTERILKPFEDDNRHTIAFSEFAKVYSNAVSFKELGYVFQDLAGGQQTISRDTFASFVCDIQDEDWDAETLNEKLALMGCVGIDGITENNFVGYIMSPYFDFAMEKKLTGVYQDMDQIMCCYFISSSHNTYLTGDQLTSKSSAQMYKKGASRRVPVREAICRNGPHGEPIVCHGYTRTSCIAFEECVKMIRQYAFTASAYLVILSLGVHTSVEQQDKMAEILEEGLGSLLFWPPWGSNEKPTMAFSPNNLKNKILVKAKRGDFPAREPRVDKDDDATETDSMASTNNADYLKMKEARRKAGKDEVRVSAKLSAIVSIESSKYQGVKDLSYLKDKQPHHCSSYSERKGKAIVREAHNALVCINDTCLSRVFPAGSRIDSSNYRPLLYWVSGCQMVAINWQSSDTFGWRLNGCIFLDSGCCGYLLKPDYLRPVTCPDVAVPEYLRSLTVEVIWGFALPSAKQARGCRPVCDSFPRGP	not soluble
MTQTQPVGTLRLTIDDQGPQGQSRAVEQFHQGALRVIRPHYLDDSGQVCYTIIAIGGGYLGGDVYEQQFTIKDNAKALITTQSATKIYRTPQGPATQHTEINVGENAVLEYLADQTIAYREATYHQFTKVALHPSATFVMSEQITPGWHPDGKHFAYDEMRLHTEITDSTTGRLVLLDNLLLRPDSREGSFGWTEQYTHSGQMIVMGEGVDKQLVAELNEQLAAHPDVYGAVNFLSAPGTLLRGFIARTLSNRTEELINLHEHIASLLRGRWRGQEPVNLRKYLEHHHHHH	not soluble
MAHHHHHHMRLYNSLKQELVAATGAKMLGSGGLIDWSKHQVFDNPSDISQTFNEIIDMLAEYFDVDVYATRLNYYRDGTQWKPQHHDSHAYGGRALREDFTVGLSLGATRSLLFVHEASQRDFNFPQLNGDCFAFTGEVNSLFTHGVPRVHTPTGDRFSIIAWGRRRNLNERNGGVPSSAAAQVKGYRINTMEDAVEVAKQLVAAEPGAAAAKKAMPPPCASGDASSGGVATATRPAKRHKRRLQ	soluble
AHHHHHHGSKFPKNFMFGYSWSGFQFEMGLPGSEVESDWWVWVHDKENIASGLVSGDLPENGPAYWHLYKQDHDIAEKLGMDCIRGGIEWARIFPKPTFDVKVDVEKDEEGNIISVDVPESTIKELEKIANMEALEHYRKIYSDWKERGKTFILNLYHWPLPLWIHDPIAVRKLGPDRAPAGWLDEKTVVEFVKFAAFVAYHLDDLVDMWSTMNEPNVVYNQGYINLRSGFPPGYLSFEAAEKAKFNLIQAHIGAYDAIKEYSEKSVGVIYAFAWHDPLAEEYKDEVEEIRKKDYEFVTILHSKGKLDWIGVNYYSRLVYGAKDGHLVPLPGYGFMSERGGFAKSGRPASDFGWEMYPEGLENLLKYLNNAYELPMIITENGMADAADRYRPHYLVSHLKAVYNAMKEGADVRGYLHWSLTDNYEWAQGFRMRFGLVYVDFETKKRYLRPSALVFREIATQKEIPEELAHLADLKFVTRK	not soluble
